Reference: patent publication US9156916

What was measured:
[1] = target: human surface membrane immunoglobulin D (smIgD) (human) (UniProt P01880); assay: flow cytometry, dual labelling of human PBMC (CD14 and IgD)
[2] = target: human surface membrane immunoglobulin D (smIgD) (human) (UniProt P01880); assay: flow cytometry, dual labelling of human PBMC (CD3 and IgD)
[3] = target: human surface membrane immunoglobulin D (smIgD) (human) (UniProt P01880); assay: cell-based or functional assay

Chain of UniProt P01880 (P01880 whole entry): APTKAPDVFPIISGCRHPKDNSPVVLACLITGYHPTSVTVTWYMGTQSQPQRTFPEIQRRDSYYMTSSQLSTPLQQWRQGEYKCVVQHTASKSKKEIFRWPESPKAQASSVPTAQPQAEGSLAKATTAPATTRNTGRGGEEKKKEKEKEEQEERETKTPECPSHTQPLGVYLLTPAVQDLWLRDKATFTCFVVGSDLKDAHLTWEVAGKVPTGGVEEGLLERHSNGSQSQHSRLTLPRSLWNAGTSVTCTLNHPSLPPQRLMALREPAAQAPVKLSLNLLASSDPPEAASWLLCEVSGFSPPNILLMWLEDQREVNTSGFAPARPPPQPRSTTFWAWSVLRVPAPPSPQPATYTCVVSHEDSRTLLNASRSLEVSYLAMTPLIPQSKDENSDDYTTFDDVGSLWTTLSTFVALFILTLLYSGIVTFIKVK

| percent of CD14+ cells labelled for smIgD [1] [%] | percent of CD3+ T-cells labelled for smIgD [2] [%] | proportion of human monocyte population expressing intra-cellular TNF-α after LPS, antibody given 24 hrs before LPS (flow cytometry) [3] [%] | proportion of human monocyte population expressing intra-cellular TNF-α, antibody given concurrently with LPS for 4 hours (flow cytometry) [3] [%] | Substance |
| --- | --- | --- | --- | --- |
| 54 | 10 |  |  | goat FITC-conjugated anti-human IgD antibody (clone STAR94F) |
|  |  | 5 | 26 | anti-human smIgD antibody (clone STAR94, Serotec, Oxford, UK) |
